From patent US20060068468A1 (ACCELERON PHARMA, published 2006) come the findings set out here.

Positions count from the first letter of the chain named.

Assay [1] concerns the target T1, Activin A (UniProt P08476 311-426).
T1 construct: also called ActA
T1 sequence (looked up): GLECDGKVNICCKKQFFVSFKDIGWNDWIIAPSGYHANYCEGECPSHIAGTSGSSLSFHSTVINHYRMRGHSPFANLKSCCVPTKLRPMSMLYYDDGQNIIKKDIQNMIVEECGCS
Briefly: BiaCore (SPR); ligand amine-coupled to CM5 chip, ActRIIB-Fc injected. The procedure:
(§1) GDF-11 or Activin A (“ActA”) were immobilized on a BiaCore CM5 chip using standard amine coupling procedure. The ActRIIB-Fc mutant or wild-type protein was loaded onto the system, and binding was measured.

The target in assay [2] is T2, GDF-11 (UniProt O95390 299-407).
T2 construct: also called Growth and Differentiation Factor-11; BMP11
T2 sequence (looked up): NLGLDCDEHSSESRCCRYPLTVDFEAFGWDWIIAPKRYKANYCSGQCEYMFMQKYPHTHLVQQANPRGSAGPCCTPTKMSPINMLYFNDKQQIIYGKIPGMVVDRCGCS
The assay is described as above. The procedure: as §1

The target in assay [3] is T1, Activin A. The experiment in a line: BiaCore, ligand immobilized on CM5 chip. On the procedure: as §1
For orientation: In SPR one partner is held on a chip, and binding of the other changes the refractive index at the surface.

For assay [4], the target named is T2, GDF-11. The experiment in a line: BiaCore, ligand immobilized on CM5 chip. The procedure:
as §1

B1: ActRIIB-Fc +15tail (Fc fusion)
chain: SGRGEAETRECIYYNANWELERTNQSGLERCEGEQDKRLHCYASWANSSGTIELVKKGCWLDDFNCYDRQECVATEENPQVYFCCCEGNFCNERFTHLPEAGGPEVTYEPPPTAPTGGGTHTCPPCPAPELLGGPSVFLFPPKPKDTLMISRTPEVTCVVVDVSHEDPEVKFNWYVDGVEVHNAKTKPREEQYNSTYRVVSVLTVLHQDWLNGKEYKCKVSNKALPVPIEKTISKAKGQPREPQVYTLPPSREEMTKNQVSLTCLVKGFYPSDIAVEWESNGQPENNYKTTPPVLDSDGSFFLYSKLTVDKSRWQQGNVFSCSVMHEALHNHYTQKSLSLSPGK
notes: also called ActRIIB-Fc with the C-terminal 15 amino acids of the extracellular domain
Turning to B1, the Kd (commonly the free concentration of one partner at which half of the binding sites on the other are occupied at equilibrium, for simple one-to-one binding) with Activin A [1] is about 26 nM; with GDF-11 [2], 19 nM.

B2: background ActRIIB-Fc fusion, WT (64A) (Fc fusion)
chain: SGRGEAETRECIYYNANWELERTNQSGLERCEGEQDKRLHCYASWANSSGTIELVKKGCWLDDFNCYDRQECVATEENPQVYFCCCEGNFCNERFTHLPEAGGGTHTCPPCPAPELLGGPSVFLFPPKPKDTLMISRTPEVTCVVVDVSHEDPEVKFNWYVDGVEVHNAKTKPREEQYNSTYRVVSVLTVLHQDWLNGKEYKCKVSNKALPVPIEKTISKAKGQPREPQVYTLPPSREEMTKNQVSLTCLVKGFYPSDIAVEWESNGQPENNYKTTPPVLDSDGSFFLYSKLTVDKSRWQQGNVFSCSVMHEALHNHYTQKSLSLSPGK
notes: Made in HEK293T or CHO cells and purified on protein A; also called wild-type (background A64) ActRIIB-Fc; background A64 construct
For the molecule B2, the Kd in the assay with Activin A [1] was 180 nM; with GDF-11 [2], 260 nM.

B3: ActRIIB-Fc K74I (Fc fusion)
chain: B2 chain with K56I
notes: Mutation in the background ActRIIB-Fc
As for B3, the values for the binding result with GDF-11 [2] and with Activin A [3] were “binds” and “no binding”, respectively.

B4: ActRIIB-Fc R40A (Fc fusion)
chain: B2 chain with R22A
notes: as for B3
Regarding B4, the binding result with Activin A [1] and with GDF-11 [2] was “binds” each time.

B5: ActRIIB-Fc K74Y (Fc fusion)
chain: B2 chain with K56Y
notes: as for B3
Regarding B5, the binding result in the assay with GDF-11 [2] is “binds”; with Activin A [3], “no binding”.

B6: ActRIIB-Fc L79A (Fc fusion)
chain: B2 chain with L61A
notes: as for B3
Take B6: the binding result with Activin A [1] was “binds”; in the assay with GDF-11 [4], “no binding”.

B7: ActRIIB-Fc K74F (Fc fusion)
chain: B2 chain with K56F
notes: as for B3
In the case of B7, the binding result with GDF-11 [2] is “binds”; with Activin A [3] it was “no binding”.

B8: ActRIIB-Fc D54A (Fc fusion)
chain: B2 chain with D36A
notes: as for B3
On to B8, for which the values for the binding result with Activin A [1] and with GDF-11 [4] were “binds” and “no binding”, respectively.

B9: ActRIIB-Fc K74A (Fc fusion)
chain: B2 chain with K56A
notes: as for B3
As for B9, the figures for the Kd with Activin A [1] and with GDF-11 [2] were 4.35 nM and 5.3 nM, respectively.
